Results as given in patent US20140087995A1 (published 2014).
Numbered stars: 1 amine (or outer) side, 2 acyl side, 3 side chain; on linkers, the order of the positions; unused ones are H or OH. Bridge positions count the residues as written; N and C are the ends. Side chains are listed from the residue outwards. Ends that are not written are not given here. * marks the point of attachment. C20 diacid = O=C(O)CCCCCCCCCCCCCCCCCCC(=O)*; C18 diacid = O=C(O)CCCCCCCCCCCCCCCCC(=O)*; C16 diacid = O=C(O)CCCCCCCCCCCCCCC(=O)*; γGlu = O=C(O)[C@H](CCC(=O)[*:2])N[*:1]

B1: N^ε1-[(4S)-4-carboxy-4-(15-carboxypentadecanoylamino)butanoyl]-[Arg17,Pro21,Pro27,His34]-h-amylin (peptide)
peptide: K([γGlu-C16 diacid])CNTATCATQRLANFLRHSSPNFGAIPSSTNVGHNTY-NH2
modifications: disulfide 2-7; N-terminus assumed
SMILES: CC[C@H](C)[C@H](NC(=O)[C@H](C)NC(=O)CNC(=O)[C@H](Cc1ccccc1)NC(=O)[C@H](CC(N)=O)NC(=O)[C@@H]1CCCN1C(=O)[C@H](CO)NC(=O)[C@H](CO)NC(=O)[C@H](Cc1c[nH]cn1)NC(=O)[C@H](CCCNC(=N)N)NC(=O)[C@H](CC(C)C)NC(=O)[C@H](Cc1ccccc1)NC(=O)[C@H](CC(N)=O)NC(=O)[C@H](C)NC(=O)[C@H](CC(C)C)NC(=O)[C@H](CCCNC(=N)N)NC(=O)[C@H](CCC(N)=O)NC(=O)[C@@H](NC(=O)[C@H](C)NC(=O)[C@@H]1CSSC[C@H](NC(=O)[C@@H](N)CCCCNC(=O)CC[C@H](NC(=O)CCCCCCCCCCCCCCC(=O)O)C(=O)O)C(=O)N[C@@H](CC(N)=O)C(=O)N[C@@H]([C@@H](C)O)C(=O)N[C@@H](C)C(=O)N[C@@H]([C@@H](C)O)C(=O)N1)[C@@H](C)O)C(=O)N1CCC[C@H]1C(=O)N[C@@H](CO)C(=O)N[C@@H](CO)C(=O)N[C@H](C(=O)N[C@@H](CC(N)=O)C(=O)N[C@H](C(=O)NCC(=O)N[C@@H](Cc1c[nH]cn1)C(=O)N[C@@H](CC(N)=O)C(=O)N[C@H](C(=O)N[C@@H](Cc1ccc(O)cc1)C(N)=O)[C@@H](C)O)C(C)C)[C@@H](C)O
notes: modifications are with respect to human amylin
B2: N^ε1-[(4S)-4-carboxy-4-(17-carboxyheptadecanoylamino)butanoyl]-[Arg17,Pro21,Pro27,His34]-h-amylin (peptide)
peptide: K([γGlu-C18 diacid])CNTATCATQRLANFLRHSSPNFGAIPSSTNVGHNTY-NH2
modifications: disulfide 2-7; N-terminus assumed
SMILES: CC[C@H](C)[C@H](NC(=O)[C@H](C)NC(=O)CNC(=O)[C@H](Cc1ccccc1)NC(=O)[C@H](CC(N)=O)NC(=O)[C@@H]1CCCN1C(=O)[C@H](CO)NC(=O)[C@H](CO)NC(=O)[C@H](Cc1c[nH]cn1)NC(=O)[C@H](CCCNC(=N)N)NC(=O)[C@H](CC(C)C)NC(=O)[C@H](Cc1ccccc1)NC(=O)[C@H](CC(N)=O)NC(=O)[C@H](C)NC(=O)[C@H](CC(C)C)NC(=O)[C@H](CCCNC(=N)N)NC(=O)[C@H](CCC(N)=O)NC(=O)[C@@H](NC(=O)[C@H](C)NC(=O)[C@@H]1CSSC[C@H](NC(=O)[C@@H](N)CCCCNC(=O)CC[C@H](NC(=O)CCCCCCCCCCCCCCCCC(=O)O)C(=O)O)C(=O)N[C@@H](CC(N)=O)C(=O)N[C@@H]([C@@H](C)O)C(=O)N[C@@H](C)C(=O)N[C@@H]([C@@H](C)O)C(=O)N1)[C@@H](C)O)C(=O)N1CCC[C@H]1C(=O)N[C@@H](CO)C(=O)N[C@@H](CO)C(=O)N[C@H](C(=O)N[C@@H](CC(N)=O)C(=O)N[C@H](C(=O)NCC(=O)N[C@@H](Cc1c[nH]cn1)C(=O)N[C@@H](CC(N)=O)C(=O)N[C@H](C(=O)N[C@@H](Cc1ccc(O)cc1)C(N)=O)[C@@H](C)O)C(C)C)[C@@H](C)O
notes: as for B1
B3: N^ε1-[(4S)-4-carboxy-4-(19-carboxynonadecanoylamino)butanoyl]-[Asp14,Arg17,Pro21,Pro27,Pro34,Arg35]-h-amylin (peptide)
peptide: K([γGlu-C20 diacid])CNTATCATQRLADFLRHSSPNFGAIPSSTNVGPRTY-NH2
modifications: disulfide 2-7; N-terminus assumed
SMILES: CC[C@H](C)[C@H](NC(=O)[C@H](C)NC(=O)CNC(=O)[C@H](Cc1ccccc1)NC(=O)[C@H](CC(N)=O)NC(=O)[C@@H]1CCCN1C(=O)[C@H](CO)NC(=O)[C@H](CO)NC(=O)[C@H](Cc1c[nH]cn1)NC(=O)[C@H](CCCNC(=N)N)NC(=O)[C@H](CC(C)C)NC(=O)[C@H](Cc1ccccc1)NC(=O)[C@H](CC(=O)O)NC(=O)[C@H](C)NC(=O)[C@H](CC(C)C)NC(=O)[C@H](CCCNC(=N)N)NC(=O)[C@H](CCC(N)=O)NC(=O)[C@@H](NC(=O)[C@H](C)NC(=O)[C@@H]1CSSC[C@H](NC(=O)[C@@H](N)CCCCNC(=O)CC[C@H](NC(=O)CCCCCCCCCCCCCCCCCCC(=O)O)C(=O)O)C(=O)N[C@@H](CC(N)=O)C(=O)N[C@@H]([C@@H](C)O)C(=O)N[C@@H](C)C(=O)N[C@@H]([C@@H](C)O)C(=O)N1)[C@@H](C)O)C(=O)N1CCC[C@H]1C(=O)N[C@@H](CO)C(=O)N[C@@H](CO)C(=O)N[C@H](C(=O)N[C@@H](CC(N)=O)C(=O)N[C@H](C(=O)NCC(=O)N1CCC[C@H]1C(=O)N[C@@H](CCCNC(=N)N)C(=O)N[C@H](C(=O)N[C@@H](Cc1ccc(O)cc1)C(N)=O)[C@@H](C)O)C(C)C)[C@@H](C)O
notes: as for B1
B4: N^ε1-[(4S)-4-carboxy-4-(19-carboxynonadecanoylamino)butanoyl]-[Glu14,Arg17,Pro21,Pro27,Arg34,Glu35]-h-amylin (peptide)
peptide: K([γGlu-C20 diacid])CNTATCATQRLAEFLRHSSPNFGAIPSSTNVGRETY-NH2
modifications: disulfide 2-7; N-terminus assumed
SMILES: CC[C@H](C)[C@H](NC(=O)[C@H](C)NC(=O)CNC(=O)[C@H](Cc1ccccc1)NC(=O)[C@H](CC(N)=O)NC(=O)[C@@H]1CCCN1C(=O)[C@H](CO)NC(=O)[C@H](CO)NC(=O)[C@H](Cc1c[nH]cn1)NC(=O)[C@H](CCCNC(=N)N)NC(=O)[C@H](CC(C)C)NC(=O)[C@H](Cc1ccccc1)NC(=O)[C@H](CCC(=O)O)NC(=O)[C@H](C)NC(=O)[C@H](CC(C)C)NC(=O)[C@H](CCCNC(=N)N)NC(=O)[C@H](CCC(N)=O)NC(=O)[C@@H](NC(=O)[C@H](C)NC(=O)[C@@H]1CSSC[C@H](NC(=O)[C@@H](N)CCCCNC(=O)CC[C@H](NC(=O)CCCCCCCCCCCCCCCCCCC(=O)O)C(=O)O)C(=O)N[C@@H](CC(N)=O)C(=O)N[C@@H]([C@@H](C)O)C(=O)N[C@@H](C)C(=O)N[C@@H]([C@@H](C)O)C(=O)N1)[C@@H](C)O)C(=O)N1CCC[C@H]1C(=O)N[C@@H](CO)C(=O)N[C@@H](CO)C(=O)N[C@H](C(=O)N[C@@H](CC(N)=O)C(=O)N[C@H](C(=O)NCC(=O)N[C@@H](CCCNC(=N)N)C(=O)N[C@@H](CCC(=O)O)C(=O)N[C@H](C(=O)N[C@@H](Cc1ccc(O)cc1)C(N)=O)[C@@H](C)O)C(C)C)[C@@H](C)O
notes: as for B1
B5: N^ε1-[(4S)-4-carboxy-4-(19-carboxynonadecanoylamino)butanoyl]-[Asp14,Arg17,Pro21,Pro27,Pro34,Glu35]-h-amylin (peptide)
peptide: K([γGlu-C20 diacid])CNTATCATQRLADFLRHSSPNFGAIPSSTNVGPETY-NH2
modifications: disulfide 2-7; N-terminus assumed
SMILES: CC[C@H](C)[C@H](NC(=O)[C@H](C)NC(=O)CNC(=O)[C@H](Cc1ccccc1)NC(=O)[C@H](CC(N)=O)NC(=O)[C@@H]1CCCN1C(=O)[C@H](CO)NC(=O)[C@H](CO)NC(=O)[C@H](Cc1c[nH]cn1)NC(=O)[C@H](CCCNC(=N)N)NC(=O)[C@H](CC(C)C)NC(=O)[C@H](Cc1ccccc1)NC(=O)[C@H](CC(=O)O)NC(=O)[C@H](C)NC(=O)[C@H](CC(C)C)NC(=O)[C@H](CCCNC(=N)N)NC(=O)[C@H](CCC(N)=O)NC(=O)[C@@H](NC(=O)[C@H](C)NC(=O)[C@@H]1CSSC[C@H](NC(=O)[C@@H](N)CCCCNC(=O)CC[C@H](NC(=O)CCCCCCCCCCCCCCCCCCC(=O)O)C(=O)O)C(=O)N[C@@H](CC(N)=O)C(=O)N[C@@H]([C@@H](C)O)C(=O)N[C@@H](C)C(=O)N[C@@H]([C@@H](C)O)C(=O)N1)[C@@H](C)O)C(=O)N1CCC[C@H]1C(=O)N[C@@H](CO)C(=O)N[C@@H](CO)C(=O)N[C@H](C(=O)N[C@@H](CC(N)=O)C(=O)N[C@H](C(=O)NCC(=O)N1CCC[C@H]1C(=O)N[C@@H](CCC(=O)O)C(=O)N[C@H](C(=O)N[C@@H](Cc1ccc(O)cc1)C(N)=O)[C@@H](C)O)C(C)C)[C@@H](C)O
notes: as for B1

Molecular target: T1, human amylin receptor (Amylin 3(a) receptor: human calcitonin receptor co-expressed with RAMP-3) (human, UniProt P30988 25-474; O60896 24-148, limits assumed)
T1 construct: whole, on cells; Used as cell membranes prepared from the Amylin 3(a)/CRE-luc BHK cells (Assay V); the complex is called the human amylin receptor; also called hAmylin-R; hAmylinR
T1 sequence (looked up) 1: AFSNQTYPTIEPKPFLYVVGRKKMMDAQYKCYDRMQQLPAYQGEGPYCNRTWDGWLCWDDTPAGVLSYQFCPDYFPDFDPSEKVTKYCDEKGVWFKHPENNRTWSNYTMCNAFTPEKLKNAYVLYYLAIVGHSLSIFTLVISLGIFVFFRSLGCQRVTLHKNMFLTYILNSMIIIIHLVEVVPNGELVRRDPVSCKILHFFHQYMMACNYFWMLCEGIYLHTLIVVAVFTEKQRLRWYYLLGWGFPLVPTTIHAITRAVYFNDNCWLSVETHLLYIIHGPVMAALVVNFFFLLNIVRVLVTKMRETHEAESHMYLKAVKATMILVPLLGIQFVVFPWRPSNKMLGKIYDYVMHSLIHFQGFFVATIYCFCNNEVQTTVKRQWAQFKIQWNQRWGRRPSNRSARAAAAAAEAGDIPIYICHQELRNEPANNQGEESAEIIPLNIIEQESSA
T1 sequence (looked up) 2: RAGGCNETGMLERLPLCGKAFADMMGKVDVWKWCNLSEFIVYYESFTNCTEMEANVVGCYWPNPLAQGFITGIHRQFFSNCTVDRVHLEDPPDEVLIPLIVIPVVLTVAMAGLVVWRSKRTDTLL
Assay: SPA competition binding, displacement of 125I-rat amylin from membranes of BHK cells with human calcitonin receptor + RAMP-3 (Assay V)
Description: The binding assay was performed using scintillation proximity assay (SPA) beads (RPNQ0001) from PerkinElmer and cell membranes from the Amylin 3(a)/CRE-luc cells (as described in Assay (II)) were used. Membranes were prepared in the following way; the cells were rinsed with PBS and incubated with Versene for approximately 5 min before harvesting. The cells were flushed with PBS and the cell-suspension was centrifuged for 5 min at 1000 rpm. Cells were homogenized (ultrathurrax) in a buffer containing 20 mM Na-HEPES and 10 mM EDTA (pH 7.4) and centrifuged at 20.000 rpm for 15 min. The resulting pellet was resuspended, homogenized and centrifuged (20.000 rpm, 15 min) in a buffer containing 20 mM Na-HEPES and 0.1 mM EDTA (pH 7.4, buffer 2). The resulting pellet was resuspended in buffer 2 and protein concentration was measured (BCA protein Assay, Pierce). The homogenate was kept cold during the whole procedure. The membranes were kept at −80° C. until use. The assay was performed in a 384 well Optiplate (PerkinElmer) in a total volume of 40 ul. Membranes were mixed with SPA beads. Final concentration of membranes 35 ng/μL final and SPA beads was 0.05 mg/well. Test-compounds were dissolved in DMSO and further diluted in assay buffer (50 mM Hepes, pH 7.4, 1 mM CaCl2, 5 mM MgCl₂, 0.1% OA and 0.02% Tween20). […] The final mixture was incubated with shaking at 400 rpm for 120 min at 25° C. prior to centrifugation (1500 rpm, 10 min). Samples were analyzed on TopCounter™ (Packard). The IC₅₀ was calculated using (one site binding competition analysis) GraphPad Prism5 as a measure of receptor affinity.

Going from B1 to B2, the IC50 falls from 0.58 nM to 0.382 nM (1.5-fold). The second is the more potent here.

B3 and B4 are within 1.5-fold of each other in IC50: 0.281 nM for the first, 0.232 nM for the second.

With B5 the IC50 was 0.196 nM.
